Measurements from patent publication US6897197.

Target: human MDM2, full length (CMV driven expression construct pCHDM1A) (human) (UniProt Q00987)
Experiment: cell-based or functional assay

Chain of human MDM2, full length (CMV driven expression construct pCHDM1A) (human) (Q00987 whole entry): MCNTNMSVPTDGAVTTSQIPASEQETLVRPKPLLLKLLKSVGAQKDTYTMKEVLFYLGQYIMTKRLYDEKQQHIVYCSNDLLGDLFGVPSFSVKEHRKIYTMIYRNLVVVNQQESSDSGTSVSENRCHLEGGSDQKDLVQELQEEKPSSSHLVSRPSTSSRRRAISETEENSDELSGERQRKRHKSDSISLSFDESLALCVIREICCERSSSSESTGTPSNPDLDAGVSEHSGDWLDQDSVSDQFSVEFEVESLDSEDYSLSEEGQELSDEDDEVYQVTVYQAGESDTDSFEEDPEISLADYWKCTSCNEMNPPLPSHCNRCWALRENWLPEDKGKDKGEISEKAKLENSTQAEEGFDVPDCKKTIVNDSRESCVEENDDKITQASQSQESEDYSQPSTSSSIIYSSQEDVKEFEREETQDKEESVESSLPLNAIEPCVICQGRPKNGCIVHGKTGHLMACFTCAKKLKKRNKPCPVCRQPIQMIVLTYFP

For “mouse p19^ARF (complete ORF, expression construct in pVNic) (from UniProt Q64364 1-169)”, the transformed foci in MDM2/RAS REF cotransformation with p19^ARF added (40 foci without) was 3 foci.
